In PMC10507018, “Structure of human drug transporters OATP1B1 and OATP1B3” (Nature Communications, 2023):

Tests used:
[1] = biological target: T1, Human OATP1B1 (organic anion transporting polypeptide 1B1) (human, UniProt Q9Y6L6, N-glycosylation sites N134, N516); experiment: cryo-EM structure; OATP1B1 in lipid nanodiscs (MSP1D1, brain polar lipids with cholesterol), premixed with 1:1.75 molar excess Fab18, SEC in HBS (25 mM HEPES pH 7.4, 150 mM NaCl), with 0.065 mM E1S; conditions: both partners purified
T1 construct: wild-type human OATP1B1, gene codon-optimised for human cells (GenScript), in pcDNA5 with a cleavable C-terminal YFP-1D4 tag; The tag was removed with 3C protease after nanodisc reconstitution and before Fab18 was added for cryo-EM; also called SLCO1B1; not shown: YFP, C-terminal, cleaved; 1D4, C-terminal, cleaved

[2] = biological target: T2, Human OATP1B3 (organic anion transporting polypeptide 1B3) (human, UniProt Q9NPD5, N-glycosylation sites N134, N516); experiment: cryo-EM structure; OATP1B3 in lipid nanodiscs (MSP1D1, brain polar lipids with cholesterol), premixed with Fab19 at a molar ratio of 1:1, SEC in HBS (25 mM HEPES pH 7.4, 150 mM NaCl), with 0.05 mM atazanavir; conditions: both partners purified
T2 construct: wild-type human OATP1B3, gene codon-optimised for human cells (GenScript), in pcDNA5 with a cleavable C-terminal YFP-1D4 tag; also called SLCO1B3; not shown: YFP, C-terminal, cleaved; 1D4, C-terminal, cleaved
T2 sequence (Q9NPD5 whole entry): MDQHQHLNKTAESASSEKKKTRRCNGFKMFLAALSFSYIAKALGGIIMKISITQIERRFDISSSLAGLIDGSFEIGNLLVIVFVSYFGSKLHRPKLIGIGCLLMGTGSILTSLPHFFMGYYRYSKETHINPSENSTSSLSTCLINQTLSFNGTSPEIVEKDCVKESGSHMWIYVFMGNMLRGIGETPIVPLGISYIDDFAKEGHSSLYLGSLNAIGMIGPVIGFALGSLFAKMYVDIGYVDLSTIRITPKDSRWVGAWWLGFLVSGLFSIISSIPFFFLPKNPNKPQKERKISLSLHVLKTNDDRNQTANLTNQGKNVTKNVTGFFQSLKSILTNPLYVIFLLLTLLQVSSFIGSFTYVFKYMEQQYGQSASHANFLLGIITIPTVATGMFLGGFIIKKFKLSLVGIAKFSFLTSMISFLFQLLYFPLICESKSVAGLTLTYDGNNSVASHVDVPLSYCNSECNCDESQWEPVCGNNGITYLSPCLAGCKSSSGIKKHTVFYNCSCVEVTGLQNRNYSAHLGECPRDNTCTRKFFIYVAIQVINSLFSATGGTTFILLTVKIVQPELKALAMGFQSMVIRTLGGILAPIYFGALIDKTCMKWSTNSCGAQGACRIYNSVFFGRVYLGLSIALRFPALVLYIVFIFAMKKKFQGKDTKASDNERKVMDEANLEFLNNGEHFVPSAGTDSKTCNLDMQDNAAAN

T1 sequence (Q9Y6L6 whole entry): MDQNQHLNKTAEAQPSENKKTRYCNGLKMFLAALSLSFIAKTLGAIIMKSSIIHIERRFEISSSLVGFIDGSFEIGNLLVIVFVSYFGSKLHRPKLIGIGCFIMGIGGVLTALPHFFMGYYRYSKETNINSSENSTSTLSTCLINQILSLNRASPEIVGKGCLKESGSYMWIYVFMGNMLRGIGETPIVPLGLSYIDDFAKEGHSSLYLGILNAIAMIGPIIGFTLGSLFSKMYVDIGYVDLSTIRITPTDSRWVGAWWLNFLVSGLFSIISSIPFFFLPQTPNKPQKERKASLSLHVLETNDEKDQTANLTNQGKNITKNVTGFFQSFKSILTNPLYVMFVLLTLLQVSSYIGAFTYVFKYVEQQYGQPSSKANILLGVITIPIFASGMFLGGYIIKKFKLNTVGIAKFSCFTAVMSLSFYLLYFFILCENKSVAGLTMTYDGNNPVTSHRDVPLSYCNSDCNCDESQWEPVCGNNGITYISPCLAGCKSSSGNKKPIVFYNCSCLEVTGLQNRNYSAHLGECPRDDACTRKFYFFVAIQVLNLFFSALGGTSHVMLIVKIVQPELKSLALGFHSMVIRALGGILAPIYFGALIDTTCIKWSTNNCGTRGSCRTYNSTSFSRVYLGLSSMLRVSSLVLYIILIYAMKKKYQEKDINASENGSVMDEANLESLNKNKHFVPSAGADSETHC

Binder | binding result [1] | binding result [2]
Fab18 (Fab, V domains shown, heavy chain (HC) of Fab18 in PDB 8PHW; selected by phage display from synthetic Fab library E against OATP1B3; light chain (LC) of Fab18 in PDB 8PHW; also called synthetic Fab fragment Fab18; source: E. coli C43 (Pro+), pRH2.2, purified (Protein L, Resource S)) VH: EVQLVESGGGLVQPGGSLRLSCAASGFNFSSSSIHWVRQAPGKGLEWVASISSSSGSTSYADSVKGRFTISADTSKNTAYLQMNSLRAEDTAVYYCARYGWGGPWYYWLRDSRSGIDYWGQGTLVTVSS VL: DIQMTQSPSSLSASVGDRVTITCRASQSVSSAVAWYQQKPGKAPKLLIYSASSLYSGVPSRFSGSRSGTDFTLTISSLQPEDFATYYCQQSSSSLITFGQGTKVEIK | binds | 
Fab19 (Fab, V domains shown, heavy chain (HC) of Fab19 in PDB 8PG0; selected by phage display from synthetic Fab library E against OATP1B3; light chain (LC) of Fab19 in PDB 8PG0; also called synthetic Fab fragment Fab19; source: E. coli C43 (Pro+), pRH2.2, purified (Protein L, Resource S)) VH: EVQLVESGGGLVQPGGSLRLSCAASGFNFSSSSIHWVRQAPGKGLEWVASISSSSGSTSYADSVKGRFTISADTSKNTAYLQMNSLRAEDTAVYYCARYYIKRWWLMSWEDYSMGLDYWGQGTLVTVSS VL: DIQMTQSPSSLSASVGDRVTITCRASQSVSSAVAWYQQKPGKAPKLLIYSASSLYSGVPSRFSGSRSGTDFTLTISSLQPEDFATYYCQQSSSSLITFGQGTKVEIK |  | binds
